In patent US11680110B2, “Three-dimensional structure-based humanization method” (Hoffmann-La Roche Inc., dated 2023):

T1: recombinant human IL-17 (human, UniProt Q16552)
T1 sequence: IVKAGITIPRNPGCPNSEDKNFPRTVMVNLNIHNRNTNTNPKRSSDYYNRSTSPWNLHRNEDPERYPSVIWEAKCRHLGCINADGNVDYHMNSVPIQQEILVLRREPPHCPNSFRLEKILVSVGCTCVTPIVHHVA


What was measured:
[1] = biological target: T1, recombinant human IL-17
[2] = biological target: T1, recombinant human IL-17; assay: SPR, BIAcore 3000, antibody captured, antigen injected
[3] = biological target: T1, recombinant human IL-17; assay: SPR, BIAcore 3000, antibody captured by anti-human IgG, antigen injected

| Neutralization in NHDF, IL-6 IC50 [1] | Kd [2] | Kd [3] | Binder |
| --- | --- | --- | --- |
| 210 pM | 50 pM |  | murine anti-IL17 antibody (antibody, V domains shown) VH: QVQLKESGPGLVAPSQSLSITCTVSGFSLDSYGVHWVRQPPGKGLEWLVVIWSDGTTTYNSALKSRLSITKDNSKSQVFLKMNSLQTDDTAIYYCARDTHYRLYYYAMDYWGQGTSVTVSS VL: DVVMTQTPLSLPVSLGDQASISCRSSQSLVHSNGDTYFHWYLQKPGQSPKLLIYKVSNRFSGVPDRFSGSGSGTDFTLKINRVEAEDLGVYFCSQTTHAPFTFGSGTKLEIK |
|  |  | 30 pM | chimeric anti-IL17 antibody (antibody, V domains shown) VH: QVQLKESGPGLVAPSQSLSITCTVSGFSLDSYGVHWVRQPPGKGLEWLVVIWSDGTTTYNSALKSRLSITKDNSKSQVFLKMNSLQTDDTAIYYCARDTHYRLYYYAMDYWGQGTSVTVSS VL: DVVMTQTPLSLPVSLGDQASISCRSSQSLVHSNGDTYFHWYLQKPGQSPKLLIYKVSNRFSGVPDRFSGSGSGTDFTLKINRVEAEDLGVYFCSQTTHAPFTFGSGTKLEIK |
